Experiment [1] deals with diabetic model mouse C57BL/KsJ-db/db mice. Briefly: Oral glucose tolerance test. It counts as in vivo. Particulars: for glucose tolerance ameliorating effect (blood glucose level after glucose loading): db/db mice fasted overnight, intravenous, mouse IP-10 6 μg/head, GLP-1 (7-36 Amide) 50 μg/head, 3 g/kg D-glucose orally, 0-135 minutes, FIGS. 2 and 3; for blood glucose levels at 90 minutes after glucose loading: db/db mice, intravenous mouse Mig or human I-TAC, versus solvent control group, FIG. 4. Here is the method: In the test, diabetic model mouse C57BL/KsJ-db/db mice (male, SPF grade, 7-week old, Clea Japan) were fasted overnight from the day before testing, mouse IP-10 (PEPRO TECH) or GLP-1 (7-36 Amide) (Peptide Institute), previously dried, was dissolved in physiological saline (Otsuka Pharmaceutical), and intravenous administration was conducted (6 μg/head; n=4 for IP-10, 50 μg/head; n=4 for GLP-1). For a solvent control group, physiological saline (Otsuka Pharmaceutical) was used (n=4). After intravenous administration, 3 g/kg of D-glucose was orally administered. Before glucose loading (0 minute) and 15, 45, 90 and 135 minutes after glucose loading, blood was collected from the caudal vein, and blood glucose levels were measured in accordance with the method described below.
That is, 10 μl of blood was collected and mixed with 100 μL of 0.4 N perchloric acid, further 50 μL of 0.37 M potassium carbonate was added, and the supernatant after centrifugation was analyzed using the Glucose CII•Test Wako (glucose quantitation kit, mutarotase•GOD method, Wako Pure Chemicals) to determine the blood glucose level.
Also for Mig and I-TAC, which are CXCR3 ligands other than IP-10, mouse Mig or human I-TAC (both manufactured by BIOCARTA), previously dried, was dissolved in physiological saline (Otsuka Pharmaceutical), intravenous administration was conducted, and glucose tolerance ameliorating action was evaluated by the same technique.

Another experiment deals with human CXCR3 (human) (UniProt P49682). Briefly: cell-based or functional assay.
Experiment [2] has as its system CHO/Gqi5 cell line incorporating an empty vector (pcDNA3.1). Briefly: Calcium signaling using FLIPR, CHO/Gqi5 cells transfected with control pcDNA3.1 (empty vector). It counts as cell-based. The conditions noted are these: control pcDNA3.1 transfected CHO/Gqi5 cells; human ligands, 300 ng/ml; FIG. 5. On the procedure: (§1) CHO/Gqi5 cells, at 2×10^4 cells/well, were sown to a 96-well Black bottom clear plate (Corning), and cultured in the absence of antibiotics in a CO2 incubator for 24 hours. 50 ng of pcDNA3.1/Zeo-CXCR3 or pcDNA3.1 was diluted in 5 μl of OPTI-MEM, and 0.3 μl of LipofectAmine was diluted in 5 μl of OPTI-MEM. Both were mixed and allowed to stand at room temperature for 30 minutes, after which 40 μl of a serum-free F12 medium was added, and the mixture was added to wells once washed with a serum-free F12 medium. After cultivation in a CO2 incubator for 4 hours, the medium was replaced with a 10% FBS-supplemented F12 medium (once washed), and the cells were cultured in a CO2 incubator for 24 hours and subjected to a measurement using FLIPR®.
(§2) The cells recovered from each well were sown to a 96-well Black bottom clear plate (Corning). When cell counting was possible, the cells were sown at 2×10^4 cells/well. Next day, the medium was removed, 50 μl of an H/H/F/PB solution containing 2 μM Fluo-3-AM and 0.02% Pluronic acid was added, and cultivation was conducted in a CO2 incubator for 1 hour. […]

The target in experiment [3] is T1, CXCR3 (Homo sapiens, UniProt P49682).
T1 sequence (P49682 1-368): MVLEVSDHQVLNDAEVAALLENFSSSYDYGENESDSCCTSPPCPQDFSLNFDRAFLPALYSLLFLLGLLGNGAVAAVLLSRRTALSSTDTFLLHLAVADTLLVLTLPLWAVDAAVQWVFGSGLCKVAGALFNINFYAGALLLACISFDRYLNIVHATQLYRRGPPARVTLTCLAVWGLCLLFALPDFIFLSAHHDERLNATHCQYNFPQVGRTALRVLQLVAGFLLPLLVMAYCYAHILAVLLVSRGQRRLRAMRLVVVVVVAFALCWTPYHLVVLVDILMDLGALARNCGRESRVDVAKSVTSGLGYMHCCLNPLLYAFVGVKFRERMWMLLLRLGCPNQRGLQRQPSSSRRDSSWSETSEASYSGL
As to the kind of experiment: Calcium signaling using FLIPR, CHO/Gqi5 cells transiently expressing CXCR3. It counts as cell-based. On the set-up: prepared by amplifying the coding region of human CXCR3 by the PCR technique; expressed in transfected cells; host or cells: CHO/Gqi5 cells. The conditions noted are these: pcDNA3.1/Zeo-CXCR3 transiently transfected CHO/Gqi5 cells; human ligands, 300 ng/ml; FIG. 5. Here is the method:
as §1, §2

Experiment [4] concerns the target T1, CXCR3. Briefly: Calcium signaling using FLIPR, CHO/Gqi5 line stably expressing CXCR3 (#122-17). On the set-up: prepared by amplifying the coding region of human CXCR3 by the PCR technique; expressed in transfected cells; host or cells: CHO/Gqi5 cells. It counts as cell-based. The conditions noted are these: #122-17 line, FIG. 6; for concentration dependency of the response: human ligands at 100, 300, 1,000 ng/ml; for ligand concentration from which responsiveness could be confirmed: human ligands. Here is the method:
1×10^6 cells were sown to a T25 flask, and cultured in a CO2 incubator for 24 hours. pcDNA3.1/Zeo-CXCR3 was cleaved with the restriction endonuclease SspI, and linearized at the vector portion. 2.5 μg of this plasmid DNA was diluted in 250 μl of OPTI-MEM, and 15 μl of LipofectAmine was diluted in 250 μl of OPTI-MEM. Both were mixed and allowed to stand at room temperature for 30 minutes, after which 2 ml of a serum-free F12 medium was added, and the mixture was added to a flask once washed with a serum-free F12 medium. After cultivation in a CO2 incubator for 4 hours, the medium was replaced with a 10% FBS-supplemented F12 medium (once washed), and cultivation was conducted in a CO2 incubator for 48 hours. The cells were recovered and sown to a 96-well plate at 1, 5 or 25 cells/well. At this time, Zeocin was added at 250 μg/ml. Three 96-well plates for each cell concentration, i.e., a total of nine plates, were cultured. About 20 days later, cells were recovered from the wells with evidence of cell proliferation, and sown to a 96-well Black bottom clear plate (Corning). Next day the plate was subjected to a measurement using FLIPR®, and selection of lines showing good ligand responsiveness was performed. For the lines showing good ligand responsiveness, recloning was performed. Each was selected at 0.1 cells/well on the 96-well plate, cells were recovered from the wells showing evidence of cell proliferation after about 20 days, and line selection was performed in the same manner as above.
The cells recovered from each well were sown to a 96-well Black bottom clear plate (Corning). When cell counting was possible, the cells were sown at 2×10^4 cells/well. Next day, the medium was removed, 50 μl of an H/H/F/PB solution containing 2 μM Fluo-3-AM and 0.02% Pluronic acid was added, and cultivation was conducted in a CO2 incubator for 1 hour. The medium was replaced with 100 μl of H/H/F/PB solution and heating was conducted in a CO2 incubator for 10 minutes, after which the plate was set to FLIPR® and further heated at 37° C. for 10 minutes, after which 25 μl of the ligand similarly heated at 37° C. was added using an injector, and a measurement of calcium signaling was conducted.
By the aforementioned method of (2)-2., pcDNA3.1/Zeo-CXCR3 was cleaved with the restriction endonuclease SspI and linearized at the vector portion. This was transfected to CHO/Gqi5 cells, and drug-resistant lines were selected using 250 μg/ml zeocin to obtain 156 drug-resistant lines. Next, for these resistant lines, responsiveness to IP-10 was confirmed using FLIPR®, and lines showing high ligand responsiveness (6 clones) were isolated. […]

Experiment [5] concerns the target T1, CXCR3. The conditions noted are these: J. Biol. Chem., 273(29): 18288-18291 (1998); Eur. J. Immunol., 29 (1999); cited from earlier work.

Where no end group is shown, it is not given here.

With “GLP-1 (7-36 Amide) (HAEGTFTSDVSSYLEGQAAKEFIAWLVKGR-NH2; UniProt P01275 98-127, looked up) [a kind of incretin known to act on the pancreas to promote insulin secretion (Peptide Institute), reference compound]”, the “glucose tolerance ameliorating effect (blood glucose level after glucose loading)” value in experiment [1] is listed as “glucose tolerance ameliorating effect”.

On to “Human IP-10 (Peprotech) (from UniProt P02778 22-98) (ligand)”, for which the lowest ligand concentration giving a calcium response (FLIPR) in the CXCR3 stably expressing CHO/Gqi5 line #122-17 with human CXCR3 (human) was determined as 300 ng/mL.

Turning to “I-TAC: CXC chemokine, physiological ligand for CXCR3; human I-TAC”, in experiment [1], the “blood glucose levels at 90 minutes after glucose loading” value is listed as “decreased compared to the solvent control group”. The “responsiveness to ligand (calcium signaling, fluorescence intensity)” value in experiment [2] is recorded as “no response was detected”. Also, in the experiment with CXCR3 [3], the “responsiveness to ligand (calcium signaling, fluorescence intensity)” value was “a response was observed”. In the experiment with CXCR3 [4], the “concentration dependency of the response” value is listed as “concentration dependency could be confirmed” and the “ligand concentration from which responsiveness could be confirmed” value is not below 100 ng/mL.

Consider “IP-10: CXC chemokine, physiological ligand for CXCR3; mouse IP-10 (PEPRO TECH) in Example 1, human IP-10 (Peprotech) in Example 4”, for which the “glucose tolerance ameliorating effect (blood glucose level after glucose loading)” value in experiment [1] is given as “glucose tolerance ameliorating effect nearly equivalent, on a dose basis, to that of GLP-1”. Moreover, the “responsiveness to ligand (calcium signaling, fluorescence intensity)” value in experiment [2] is “no response was detected”. Moreover, in the experiment with CXCR3 [3], the “responsiveness to ligand (calcium signaling, fluorescence intensity)” value is “a response was observed”. In the experiment with CXCR3 [4], the “concentration dependency of the response” value is “concentration dependency could be confirmed” and the “ligand concentration from which responsiveness could be confirmed” value is not below 300 ng/mL.

On to “MCP-3: CC chemokine known to weakly bind to CXCR3”, for which the “binding to CXCR3” value with CXCR3 [5] is “weakly bind”.

On to “MCP-4: CC chemokine known to weakly bind to CXCR3”, for which the “binding to CXCR3” value in the experiment with CXCR3 [5] is given as “weakly bind”.

Consider “MIP-3a: CC chemokine known to weakly bind to CXCR3”, for which the “binding to CXCR3” value with CXCR3 [5] is given as “weakly bind”.

With “RANTES: CC chemokine known to weakly bind to CXCR3”, the “binding to CXCR3” value with CXCR3 [5] is “weakly bind”.

In the case of “eotaxin: CC chemokine known to weakly bind to CXCR3”, the “binding to CXCR3” value with CXCR3 [5] is on record as “weakly bind”.

Regarding “human I-TAC (G/T) (from UniProt O14625 22-94) (ligand)”, the lowest ligand concentration giving a calcium response (FLIPR) in the CXCR3 stably expressing CHO/Gqi5 line #122-17 with human CXCR3 (human) was 100 ng/mL.

B1: Mig: CXC chemokine, physiological ligand for CXCR3; mouse Mig (BIOCARTA) (protein, UniProt P18340 22-126, looked up)
C-X-C motif chemokine 9: TLVIRNARCSCISTSRGTIHYKSLKDLKQFAPSPNCNKTEIIATLKNGDQTCLDPDSANVKKLMKEWEKKISQKKKQKRGKKHQKNMKNRKPKTPQSRRRSRKTT
In the case of B1, in experiment [1], the “blood glucose levels at 90 minutes after glucose loading” value was “decreased compared to the solvent control group”.

B2: 6Ckine: CC chemokine known to weakly bind to CXCR3 (protein, UniProt O00585 24-134, looked up)
C-C motif chemokine 21: SDGGAQDCCLKYSQRKIPAKVVRSYRKQEPSLGCSIPAILFLPRKRSQAELCADPKELWVQQLMQHLDKTPSPQKPAQGCRKDRGASKTGKKGKGSKGCKRTERSQTPKGP
In the case of B2, the “binding to CXCR3” value in the experiment with CXCR3 [5] is recorded as “weakly bind”.

(Values after US20050119174A1, “Novel blood sugar controller and method of screening the same” (Sumitomo Pharmaceuticals Co. Ltd., priority 2002, published 2005).)
